The text below walks through data of article PMC4284093 (Journal of molecular biology, 2014).

For series [1], the target named is KSAT3+KR3 (module 3 of 6-deoxyerythronolide B synthase without the ACP domain) (Saccharopolyspora erythraea). Put plainly: SEC.
Series [2] shares this target. Put plainly: SEC-SAXS. A general note: SEC sorts molecules by how far they enter the pores of the column.
Series [3] has as its target M3+TE (module 3 of 6-deoxyerythronolide B synthase fused to the TE domain) (Saccharopolyspora erythraea). Put plainly: SEC-SAXS.
Series [4] addresses DEBS3 (6-deoxyerythronolide B synthase 3; modules 5 and 6 and the TE domain) (Saccharopolyspora erythraea) (UniProt Q03133). Put plainly: SEC-SAXS.
Series [5] concerns the molecule itself. Put plainly: SEC-SAXS.

The stoichiometry N is the number of molecules, sites or subunits per partner or assembly. Take “KSAT3+KR3 (module 3 of 6-deoxyerythronolide B synthase without the ACP domain) (domain or fragment)”: the stoichiometry N in series [1] and in series [2] was 2 each time.

“M3+TE (module 3 of 6-deoxyerythronolide B synthase fused to the TE domain) (enzyme)” returned a stoichiometry N in series [3] of 2.

With “DEBS3 (6-deoxyerythronolide B synthase 3; modules 5 and 6 and the TE domain), Q03133 1-3172”, in series [4], the stoichiometry N worked out at 2.

B1: TE (terminal thioesterase domain of 6-deoxyerythronolide B synthase) (domain or fragment, Saccharopolyspora erythraea)
chain: QLDSGTPAREASSALRDGYRQAGVSGRVRSYLDLLAGLSDFREHFDGSDGFSLDLVDMADGPGEVTVICCAGTAAISGPHEFTRLAGALRGIAPVRAVPQPGYEEGEPLPSSMAAVAAVQADAVIRTQGDKPFVVAGHSAGALMAYALATELLDRGHPPRGVVLIDVYPPGHQDAMNAWLEELTATLFDRETVRMDDTRLTALGAYDRLTGQWRPRETGLPTLLVSAGEPMGPWPDDSWKPTWPFEHDTVAVPGDHFTMVQEHADAIARHIDAWLGGGNS
Regarding B1, the “stoichiometry N” value in series [5] was 2.
